Measurements as given in patent US20090305963A1, “Lipocalin 2 for the Treatment, Prevention, and Management of Cancer Metastasis, Angiogenesis, and Fibrosis” (priority 2005, published 2009).

How the values were obtained:
4T1-ras (R) cells = assay: In vitro invasion assay (Matrigel-coated Transwells); format: cell-based, mouse; conditions: stable lipocalin 2 expression (RL) vs R cells; 16 hours
Method: FIG. 3 is a graph depicting the invasion migration of stable 4T1 clones using EV, R, and RL cells. Polycarbonate membranes of Transwells were coated with Matrigel® and cells were seeded. Sixteen hours later, cells were fixed, stained with Giemsa solution, and counted for each of the stable clones; EV, R, and RL.
Polycarbonate membranes (6.5 mm diameter, 8 μm pore size) of Transwells (Coster, N.Y.) were coated with Matrigel® (BD Biosciences, Franklin Lakes, N.J.) and cells were seeded (10^6 cells/100 μl) with DMEM including 0.1% serum. 16 hours later, cells were fixed, stained with Giemsa solution, and the upper surface of each membrane was scraped with a cotton swab. Cells that had reached the lower surface of the membrane (migrated cells) were counted in 20 random fields using a light microscope (×400).

[1] = tested on: serum-response element (SRE); assay: SRE-luciferase assay; format: cell-based, mouse; conditions: RL cells; 48 hour incubation in serum free DMEM
Method: After transient transfection of the plasmids, cells were incubated for 20 hours in 10% FCS and luciferase activity in the cell lysates was determined using a luminometer normalized by sea-pansy luciferase activity under the control of the thymidine kinase promoter. The Dual-Luciferase Reporter Assay System was purchased from Promega (Madison, Wis.) (Hanai et al., J. Biol. Chem. 277:16464-16469, 2002).
For these experiments, EV and R cells were starved in DMEM without serum for 48 hours. During this time, half of the R cells were incubated with 50 μg/ml of lipocalin 2 protein with iron-loaded siderophore (R+Lipo:Sid:Fe), after which all cells were incubated with 10% FCS containing DMEM for 20 minutes and then harvested for western blotting with phosphospecific antibodies. Signaling events downstream of ERK activation were then monitored with a multi-copy serum-response element (SRE)-luciferase construct introduced into EV, R, and RL (FIG. 6B). For these experiments, an SRE-luciferase assay was performed on 4T1 clones after the 48 hour incubation in serum free DMEM. […] Just like R cells treated with exogenous protein (FIG. 6A), R cells infection with recombinant adenovirus carrying lipocalin 2, but not GFP, reduced SRE-luciferase activity, MEK, and ERK1/2 phosphorylation, without altering ras expression.
To localize the effect of lipocalin on ras-MAPK signaling, we utilized an adenovirus and expression plasmid encoding a constitutively active MEK (MEK-DD) (Murakami et al., Cell Growth Differ 10:333-342, 1999). MEK-DD adenoviral infection of EV cells led to increased SRE-luciferase activity (increased MAPK activity). […] RL cells in a 6-well plate were infected with an adenovirus carrying the MEK dominant active form (MEK-DD) and a Lac-Z adenovirus at the indicated multiplicities (MOI) in 2% serum including DMEM medium for 48 hours. Cells were then trypsinized, respread on 6-well plate at 5-10% confluency, and incubated with 10% serum including DMEM medium. Cell lysates were collected for western blotting 48 hours after the final plating (FIG. 6D). […]

E-cadherin mRNA = E-cadherin mRNA by semi-quantitative RT-PCR; format: cell-based, mouse; conditions: EV, R and RL cells in vitro
Method: Total RNA was isolated from 4T1 cells in vitro using the SV Total RNA Isolation system (Promega, Madison, Wis.). Tissue RNA was collected with TRIzol® (GibcoBRL, Gaithersburg, Md.). RT-PCR was performed on the Perkin Elmer GeneAmp PCR system 2400 using Omniscript (Qiagen, Valencia, Calif.) for reverse transcription reaction, and Taq DNA polymerase (Qiagen) and primers for mouse E-cadherin (5′-[…]-3′ and 5′-[…]-3′, SEQ ID NO: 5), GAPDH (5′-ACAGTCTTCTGAGTGGCA-3′, SEQ ID NO: 6, and 5′-CCCATCACCATCTTCCAG-3′, SEQ ID NO: 7) and HA-tagged lipocalin 2 (5′-GGAGTACTTCAAGATCAC-3′, SEQ ID NO: 8 and 5′-[…]-3′, SEQ ID NO: 9) for DNA amplification. The PCR conditions were established for DNA amplification in the linear range. RT-PCR products were analyzed on 1% agarose gels.

4T1 primary tumor = assay: Western blot of total cell lysate from 4T1 primary tumors; format: in vivo, Balb/c mice
Text: 4T1 clones (EV, R and RL) were suspended in PBS and injected subcutaneously in the backs of Balb/c mice. 3 weeks later, primary tumor tissue was dissected, homogenized and the supernatant fluid was collected as total cell lysate. Western blot of total cell lysate from each primary tumor for the antigen is shown. GAPDH serves as a loading control. The E-cadherin, vimentin and GAPDH data is from Hanai et al., J. Biol. Chem. 280:13641-13647 (2005).
Cells were stained as described previously (Mammoto et al., Cancer Lett. 184:165-170, 2002) and images acquired with a Delta Vision system (Applied Precision, Issaquah, Wash.) equipped with an Axiovert 100 microscope (Carl Zeiss MicroImaging Inc., Shelton, Conn.) and a Photometrics 300 series scientific-grade cooled CCD camera, reading 12-bit images, and using the 63/1.4 NA plan-Neofluar objective. For immunoprecipitation and immunoblotting, tissues were weighed, diced, soaked in ice cold RIPA buffer with 1 mM phenylmethylsulfonyl fluoride (PMSF), 1 μg/ml Aprotinin, 1 mM Na3VO4, 1 nM NaF, homogenized on ice, centrifuged at 10,000 g for 10 minutes at 4° C., and the supernatant fluid collected as total cell lysate. Cultured cells were washed, scraped, and solubilized in a lysis buffer containing 20 mM Tris-HCl pH 7.5, 150 mM NaCl, 0.5% Triton X-100, 1% aprotinin, and 1 mM PMSF. After 20 minutes on ice, the cells were pelleted by centrifugation and the supernatants were used as a cell lysate. Cell lysates or immunoprecipitated cell lysates were separated by PAGE (NuPAGE® gels; Invitrogen, Carlsbad, Calif.), followed by electroblotting onto a polyvinylidenedifluoride membrane (PVDF). Protein bands were detected using SuperSignal® West Pico Chemiluminescent Substrate (Pierce Chemical Co., Rockford, Ill.) (Hanai et al., J. Cell. Biol. 158:529-539, 2002).
To determine whether lipocalin 2 could affect expression of anti-angiogenic factors in vivo, we injected EV, R, or RL cells subcutaneously in the backs of Balb/c mice and dissected the primary tumors at 3 weeks post-inoculation. As shown above and in Hanai et al., supra, E-cadherin and vimentin protein expression varied reciprocally in the three tumor types. We assessed the expression of VEGF and thrombospondin-1 (TSP-1) by western blot in each tumor tissue.

colon cancer cells = conditions: ectopic expression of lipocalin 2; cited from earlier work

B1: lipocalin 2: human lipocalin 2 cDNA (HA tagged) in pcDNA3.1, stably expressed in 4T1-ras cells (RL clone); iron-siderophore binding protein (protein, UniProt P80188 21-198, looked up)
Neutrophil …: QDSTSDLIPAPPLSKVPLQQNFQDNQFQGKWYVVGLAGNAILREDKDPQKMYATIYELKEDKSYNVTSVLFRKKKCDYWIRTFVPGCQPGEFTLGNIKSYPGLTSYLVRVVSTNYNQHAMVFFKKVSQNREYFKITLYGRTKELTSELKENFIRFSKSLGLPENHIVFPVPIDQCIDG
modifications: HA tag
In the case of B1, the “reversal of ras induced invasiveness in vitro” value (4T1-ras (R) cells) is reported as “approximately 76%”, the “SRE-luciferase activity relative to R cells” value [1] is reported as “about half to two-thirds” and the “E-cadherin mRNA” value (E-cadherin mRNA) is reported as “remained unchanged”. The “E-cadherin in primary tumors” value (4T1 primary tumor; RL tumors vs R) was “more E-cadherin”, the “vimentin in primary tumors” value (4T1 primary tumor; RL tumors vs R) was “less vimentin” and the “TSP-1 protein in primary tumors” value (4T1 primary tumor; RL vs R and EV tumors, 3 weeks post-inoculation) was “returned in RL cells to the levels noted in EV cells”. The “ras-induced increase of VEGF protein in primary tumors” value (4T1 primary tumor; RL vs R tumors, 3 weeks post-inoculation) was “completely abrogated” and the “invasiveness of colon cancer cells” value (colon cancer cells) was “suppressed the invasiveness of colon cancer cells”.
